Literature values as cited in patent US20190350851A1, “DOSE RESPONSE, SURFACE MODIFIED NANOTUBES” (MOLECULAR REBAR DESIGN, LLC, priority 2018, published 2019).

B1: Myoglobin (protein, UniProt P02144 2-154, looked up)
Myoglobin: GLSDGEWQLVLNVWGKVEADIPGHGQEVLIRLFKGHPETLEKFDKFKHLKSEDEMKASEDLKKHGATVLTALGGILKKKGHHEAEIKPLAQSHATKHKIPVKYLEFISECIIQVLQSKHPGDFGADAQGAMNKALELFRKDMASNYKELGFQG

Settings: in water
For `NC(=O)CC[C@@H]1NC(=O)[C@H](Cc2ccccc2)NC(=O)[C@H](Cc2ccc(O)cc2)NC(=O)CCSSC[C@@H](C(=O)N2CCC[C@H]2C(=O)N[C@H](CCCN=C(N)N)C(=O)NCC(N)=O)NC(=O)[C@H](CC(N)=O)NC1=O` [Desmopressin, reference compound], the “Hydrodynamic Radius” value is given as 0.88 nm. In the case of `O=C(O)c1cccnc1` [Niacin, reference compound], the “Hydrodynamic Radius” value is listed as 0.33 nm. In the case of Bovine serum albumin, the “Hydrodynamic Radius” value is given as 7.0 nm. For Insulin, the “Hydrodynamic Radius” value is given as 2.1 nm. In the case of Cytochrome C, the “Hydrodynamic Radius” value is given as 2.64 nm. In the case of `CN1CCCC1c1cccnc1` (centres unmarked) [Nicotine, reference compound], the “Hydrodynamic Radius” value is listed as 0.38 nm. In the case of B1, the “Hydrodynamic Radius” value is listed as 3.34 nm.

Same assay, conditions: in water; listed as bovine serum albumin
In the case of Bovine serum albumin, the “Hydrodynamic Radius” value is listed as 7 nm.
